Results taken from patent US20210063414A1, “METHODS FOR PREVENTING AND/OR TREATING BONE LOSS CONDITIONS BY MODULATING IRISIN” (Dana-Farber Cancer Institute, Inc., priority 2018, published 2021).

Legend:
Assay in all cases: Crosslinking/co-immunoprecipitation/mass spectrometry (TMT quantitative proteomics) to identify irisin receptors
Type in all cases: binding
[1] = target: T1, MLO-Y4 cell surface proteins (Mus musculus, UniProt G3X9C2); conditions: co-precipitated protein Nccrp1 (FBX50_MOUSE)
T1 construct: endogenous in cells; host or cells: MLO-Y4
T1 sequence (G3X9C2 1-266): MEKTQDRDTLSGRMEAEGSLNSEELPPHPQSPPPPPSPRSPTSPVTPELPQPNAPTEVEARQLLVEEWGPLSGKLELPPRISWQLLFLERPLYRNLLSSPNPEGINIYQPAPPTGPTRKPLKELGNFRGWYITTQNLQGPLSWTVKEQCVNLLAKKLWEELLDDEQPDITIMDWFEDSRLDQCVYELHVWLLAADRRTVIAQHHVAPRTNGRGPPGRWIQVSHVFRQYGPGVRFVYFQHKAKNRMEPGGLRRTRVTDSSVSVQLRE
How it was run: (§1)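 Relative protein abundance came from 6-plex TMT MS3 quantitation on an Orbitrap Fusion Lumos, after in-gel trypsin digestion of Coomassie-stained SDS-PAGE lanes. Input was a Ni-NTA pulldown (250 mM imidazole elution) of lysates from murine MLO-Y4 cells. These cells were treated on ice with His-tagged irisin or adipsin (10 nM, 20 min) in serum-free medium, then crosslinked with 1.5 mM DTSSP for 30 min.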

[2] = target: T2, MLO-Y4 cell surface proteins (Mus musculus, UniProt P04117); conditions: co-precipitated protein Fabp4 (FABP4_MOUSE)
T2 construct: endogenous in cells; host or cells: MLO-Y4
T2 sequence (P04117 1-132): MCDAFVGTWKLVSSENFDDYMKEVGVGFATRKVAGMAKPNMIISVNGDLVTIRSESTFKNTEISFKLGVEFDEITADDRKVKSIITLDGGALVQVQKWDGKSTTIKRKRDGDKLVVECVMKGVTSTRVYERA
How it was run: as §1

[3] = target: T3, MLO-Y4 cell surface proteins (Mus musculus, UniProt Q8VHN7); conditions: co-precipitated protein Gpr98 (GPR98_MOUSE)
T3 construct: endogenous in cells; host or cells: MLO-Y4
How it was run: as §1

[4] = target: T4, MLO-Y4 cell surface proteins (Mus musculus, UniProt Q9D3P1); conditions: co-precipitated protein Tchhl1 (TCHL1_MOUSE)
T4 construct: endogenous in cells; host or cells: MLO-Y4
T4 sequence (Q9D3P1 1-638): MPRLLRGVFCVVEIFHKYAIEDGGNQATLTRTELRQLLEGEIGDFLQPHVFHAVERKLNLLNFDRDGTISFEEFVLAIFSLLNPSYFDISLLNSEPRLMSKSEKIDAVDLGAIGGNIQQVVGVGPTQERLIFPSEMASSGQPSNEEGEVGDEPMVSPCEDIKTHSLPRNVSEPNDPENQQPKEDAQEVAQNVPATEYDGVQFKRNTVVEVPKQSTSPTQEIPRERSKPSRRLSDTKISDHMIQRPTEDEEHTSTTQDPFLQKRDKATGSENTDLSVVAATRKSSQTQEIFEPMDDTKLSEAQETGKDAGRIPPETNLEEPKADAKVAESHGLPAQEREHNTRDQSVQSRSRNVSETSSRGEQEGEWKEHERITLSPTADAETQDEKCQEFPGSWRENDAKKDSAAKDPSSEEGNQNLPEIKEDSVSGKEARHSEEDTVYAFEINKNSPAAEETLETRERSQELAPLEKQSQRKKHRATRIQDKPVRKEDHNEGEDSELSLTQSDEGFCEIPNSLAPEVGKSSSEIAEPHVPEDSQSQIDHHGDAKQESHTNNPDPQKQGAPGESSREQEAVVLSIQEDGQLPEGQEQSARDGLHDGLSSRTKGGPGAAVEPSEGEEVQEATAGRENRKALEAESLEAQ
How it was run: as §1

TMT signal-to-noise ratio [1]: 113.564
TMT signal-to-noise ratio [2]: 746.54
TMT signal-to-noise ratio [3]: 618.49
TMT signal-to-noise ratio [4]: 1810.14
Substance: adipsin
